What was measured:
PDE6D (Homo sapiens) = PDE6D (Homo sapiens) (UniProt O43924); conditions: cited from earlier work
[1] = target: KRAS WT peptide, …(OMe)-farnesyl; assay: ITC; PDE6D (100-300 μM) in the syringe, peptides (10-30 μM) in the cell; 25 °C; 10 mM Tris pH 7.5, 150 mM NaCl, 2 mM DTT, 5% DMSO
[2] = target: HRAS peptide, …(OMe)-farnesyl; assay: as above

Sequence of INPP5E (Q9NRR6 1-641): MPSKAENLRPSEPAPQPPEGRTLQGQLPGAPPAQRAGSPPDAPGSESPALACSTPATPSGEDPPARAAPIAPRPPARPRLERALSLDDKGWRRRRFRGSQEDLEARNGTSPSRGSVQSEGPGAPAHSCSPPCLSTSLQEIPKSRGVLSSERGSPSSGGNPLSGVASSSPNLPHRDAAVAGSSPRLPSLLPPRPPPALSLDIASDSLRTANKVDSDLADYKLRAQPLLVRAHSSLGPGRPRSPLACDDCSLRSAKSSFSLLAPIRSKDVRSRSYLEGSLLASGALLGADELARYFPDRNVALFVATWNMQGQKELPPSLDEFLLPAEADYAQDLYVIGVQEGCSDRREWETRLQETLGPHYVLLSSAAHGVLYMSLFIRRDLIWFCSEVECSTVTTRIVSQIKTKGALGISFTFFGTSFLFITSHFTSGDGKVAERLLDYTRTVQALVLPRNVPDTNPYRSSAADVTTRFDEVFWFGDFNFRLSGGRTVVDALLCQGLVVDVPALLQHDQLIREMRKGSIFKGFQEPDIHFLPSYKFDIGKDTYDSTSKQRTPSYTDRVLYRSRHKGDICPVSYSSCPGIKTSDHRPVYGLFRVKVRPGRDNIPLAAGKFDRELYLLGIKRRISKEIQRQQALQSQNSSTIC

Substance | Kd (PDE6D (Homo sapiens)) [nM] | Kd [1] [nM] | Kd [2] [nM]
INPP5E (from UniProt Q9NRR6) | 10 |  | 
PDE6D (phosphodiesterase 6 delta), wild type, polyhistidine tag removed (from UniProt O43924 1-150) (natural protein) |  | 1300 | 2700

Source: publication PMC8842248
